# Test results from the supplement of paper PMC9112550, “Optimization of the antimicrobial peptide Bac7 by deep mutational scanning” (BMC Biology, 2022).
# Test system: Escherichia coli TOP10
# Assay: shrunken log2 fold change of peptide-encoding DNA abundance (4.5 h post-induction vs induction); higher = less antimicrobial activity (less host growth inhibition)
# Settings: time post-induction: 4.5 h; library: site-saturation at positions 5, 18, 19, 20
# 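Note: peptides expressed intracellularly from a pBAD plasmid library in pooled LB shake-flask culture, induced with 0.3% L-arabinose, DNA abundance read by NGS, three biological replicates, DESeq2 with apeglm shrinkage.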
row,Sequence,shrunken log2 fold change
1,RRIRSRPPRLPRPRPRPCDQPRP,-0.0341
2,RRIRTRPPRLPRPRPRPRKCPRP,-0.1
3,RRIRHRPPRLPRPRPRPPNRPRP,-0.0966
4,RRIRVRPPRLPRPRPRPAMSPRP,-0.096
5,RRIRARPPRLPRPRPRPKDIPRP,-0.00725
6,RRIRGRPPRLPRPRPRPIPPPRP,0.548
7,RRIRSRPPRLPRPRPRPMGKPRP,-0.00865
8,RRIRPRPPRLPRPRPRPTMKPRP,-0.179
9,RRIRNRPPRLPRPRPRPYQKPRP,-0.0633
10,RRIRKRPPRLPRPRPRPYRIPRP,-0.0846
11,RRIRWRPPRLPRPRPRPWHRPRP,-0.0473
12,RRIRQRPPRLPRPRPRPEGVPRP,0.381
13,RRIRGRPPRLPRPRPRPKMSPRP,0.344
14,RRIRYRPPRLPRPRPRPPHEPRP,-0.125
15,RRIRYRPPRLPRPRPRPLLDPRP,-0.296
16,RRIRFRPPRLPRPRPRPDRQPRP,0.0398
17,RRIRDRPPRLPRPRPRPCLEPRP,0.103
18,RRIRHRPPRLPRPRPRPGDLPRP,0.163
19,RRIRARPPRLPRPRPRPWFWPRP,0.544
20,RRIRSRPPRLPRPRPRPPQTPRP,0.365
21,RRIRCRPPRLPRPRPRPINFPRP,-0.235
22,RRIRWRPPRLPRPRPRPFSQPRP,-0.0772
23,RRIRNRPPRLPRPRPRPKMLPRP,-0.043
24,RRIRSRPPRLPRPRPRPTWSPRP,-0.0422
25,RRIRRRPPRLPRPRPRPNIYPRP,-0.252

row,Sequence,shrunken log2 fold change
1,RRIRDRPPRLPRPRPRPYMLPRP,-0.153
2,RRIRGRPPRLPRPRPRPDHYPRP,-0.203
3,RRIRYRPPRLPRPRPRPDEMPRP,0.0412
4,RRIRRRPPRLPRPRPRPCQMPRP,0.0273
5,RRIRMRPPRLPRPRPRPPTRPRP,1.25
6,RRIRMRPPRLPRPRPRPQTQPRP,2.46
7,RRIRMRPPRLPRPRPRPSHKPRP,-0.183
8,RRIRMRPPRLPRPRPRPLHQPRP,0.0887
9,RRIRDRPPRLPRPRPRPQPCPRP,-0.0957
10,RRIRIRPPRLPRPRPRPGQAPRP,-0.0154
11,RRIRGRPPRLPRPRPRPNYKPRP,0.211
12,RRIRMRPPRLPRPRPRPHWQPRP,0.161
13,RRIRARPPRLPRPRPRPCEDPRP,0.693
14,RRIRKRPPRLPRPRPRPHVRPRP,-0.0167
15,RRIRPRPPRLPRPRPRPTREPRP,0.177
16,RRIRKRPPRLPRPRPRPYCLPRP,-0.17
17,RRIRWRPPRLPRPRPRPSKNPRP,-0.158
18,RRIRFRPPRLPRPRPRPHISPRP,-0.419
19,RRIRLRPPRLPRPRPRPTEIPRP,-0.15
20,RRIRARPPRLPRPRPRPIPKPRP,0.394
21,RRIRIRPPRLPRPRPRPNNPPRP,-0.471
22,RRIRGRPPRLPRPRPRPHDSPRP,-0.0179
23,RRIRNRPPRLPRPRPRPSCSPRP,-0.384
24,RRIRKRPPRLPRPRPRPTVNPRP,0.402
25,RRIRCRPPRLPRPRPRPRPMPRP,0.443

row,Sequence,shrunken log2 fold change
1,RRIRSRPPRLPRPRPRPLHPPRP,0.578
2,RRIRDRPPRLPRPRPRPQLLPRP,0.206
3,RRIRMRPPRLPRPRPRPEWWPRP,-0.00783
4,RRIRFRPPRLPRPRPRPHDFPRP,-0.199
5,RRIRYRPPRLPRPRPRPEKDPRP,0.0236
6,RRIRQRPPRLPRPRPRPWSPPRP,-0.106
7,RRIRHRPPRLPRPRPRPWSEPRP,0.00408
8,RRIRARPPRLPRPRPRPIVEPRP,0.207
9,RRIRMRPPRLPRPRPRPLTLPRP,-0.1
10,RRIRERPPRLPRPRPRPGESPRP,-0.0304
11,RRIRMRPPRLPRPRPRPQTEPRP,0.12
12,RRIRLRPPRLPRPRPRPIPMPRP,0.0494
13,RRIRDRPPRLPRPRPRPGCLPRP,0.589
14,RRIRPRPPRLPRPRPRPLNTPRP,-0.482
15,RRIRNRPPRLPRPRPRPSHVPRP,-0.0765
16,RRIRERPPRLPRPRPRPHSWPRP,-0.183
17,RRIRNRPPRLPRPRPRPRKGPRP,-0.16
18,RRIRERPPRLPRPRPRPAAMPRP,0.102
19,RRIRHRPPRLPRPRPRPSSDPRP,-0.529
20,RRIRARPPRLPRPRPRPYKMPRP,-0.821
21,RRIRYRPPRLPRPRPRPELAPRP,-0.0264
22,RRIRCRPPRLPRPRPRPYTMPRP,-0.382
23,RRIRKRPPRLPRPRPRPMWLPRP,0.642
24,RRIRTRPPRLPRPRPRPYMCPRP,-0.827
25,RRIRYRPPRLPRPRPRPAILPRP,-0.402

row,Sequence,shrunken log2 fold change
1,RRIRSRPPRLPRPRPRPDHAPRP,0.0838
2,RRIRTRPPRLPRPRPRPAANPRP,0.0922
3,RRIRHRPPRLPRPRPRPTNCPRP,-0.197
4,RRIRNRPPRLPRPRPRPNFDPRP,0.215
5,RRIRHRPPRLPRPRPRPKASPRP,-0.0128
6,RRIRGRPPRLPRPRPRPPDGPRP,1.99
7,RRIRNRPPRLPRPRPRPQLWPRP,-0.252
8,RRIRQRPPRLPRPRPRPSWLPRP,-0.213
9,RRIRKRPPRLPRPRPRPYRYPRP,-0.14
10,RRIRERPPRLPRPRPRPMTEPRP,-0.116
11,RRIRTRPPRLPRPRPRPCFQPRP,-0.232
12,RRIRERPPRLPRPRPRPGTRPRP,-0.0692
13,RRIRIRPPRLPRPRPRPSPFPRP,-0.81
14,RRIRRRPPRLPRPRPRPAHIPRP,0.0825
15,RRIRTRPPRLPRPRPRPFVWPRP,0.00322
16,RRIRHRPPRLPRPRPRPHGVPRP,0.00355
17,RRIRKRPPRLPRPRPRPPSNPRP,0.714
18,RRIRERPPRLPRPRPRPVCVPRP,-0.0194
19,RRIRSRPPRLPRPRPRPYYHPRP,-0.44
20,RRIRMRPPRLPRPRPRPSTAPRP,0.788
21,RRIRGRPPRLPRPRPRPTLFPRP,0.824
22,RRIRVRPPRLPRPRPRPLEQPRP,-0.0372
23,RRIRYRPPRLPRPRPRPRKEPRP,0.00543
24,RRIRCRPPRLPRPRPRPYLVPRP,-0.584
25,RRIRFRPPRLPRPRPRPCNCPRP,-0.166

row,Sequence,shrunken log2 fold change
1,RRIRFRPPRLPRPRPRPCVDPRP,0.0365
2,RRIRRRPPRLPRPRPRPQGGPRP,0.0141
3,RRIRIRPPRLPRPRPRPHMIPRP,-0.602
4,RRIRTRPPRLPRPRPRPMYSPRP,-0.00295
5,RRIRFRPPRLPRPRPRPSVYPRP,-0.158
6,RRIRQRPPRLPRPRPRPNPWPRP,0.0932
7,RRIRYRPPRLPRPRPRPSYDPRP,-0.442
8,RRIRARPPRLPRPRPRPQTDPRP,0.275
9,RRIRGRPPRLPRPRPRPDYKPRP,-0.0972
10,RRIRDRPPRLPRPRPRPFLKPRP,-0.212
11,RRIRYRPPRLPRPRPRPKSYPRP,-0.101
12,RRIRIRPPRLPRPRPRPTCTPRP,-0.807
13,RRIRWRPPRLPRPRPRPHVMPRP,-0.254
14,RRIRYRPPRLPRPRPRPLVAPRP,-0.274
15,RRIRKRPPRLPRPRPRPYMEPRP,-0.0534
16,RRIRCRPPRLPRPRPRPYKAPRP,-0.279
17,RRIRCRPPRLPRPRPRPLYVPRP,-0.833
18,RRIRIRPPRLPRPRPRPNNLPRP,-0.69
19,RRIRDRPPRLPRPRPRPHTKPRP,0.0345
20,RRIRWRPPRLPRPRPRPFESPRP,-0.0622
21,RRIRARPPRLPRPRPRPTHIPRP,0.36
22,RRIRIRPPRLPRPRPRPRVEPRP,-0.0648
23,RRIRCRPPRLPRPRPRPCFRPRP,-0.33
24,RRIRVRPPRLPRPRPRPIRDPRP,0.0875
25,RRIRQRPPRLPRPRPRPCQSPRP,-0.0019
